Assay results taken from patent US20250236667A1, “ANTIBODIES TO MUTANT CALRETICULIN AND USES THEREOF” (CENTRAL ADELAIDE LOCAL HEALTH NETWORK INC, priority 2021, published 2025).
Substitutions are numbered along the chain they refer to.

T1: full-length 30 amino acid CALR mutant neoepitope peptide (peptide used for immunisation) (human)
T1 construct: also called full-length peptide
T1 peptide: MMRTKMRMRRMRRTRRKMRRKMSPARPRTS

T2: wild type calreticulin (CALR) (human, UniProt P27797 18-417)
T2 construct: also called CALR^WT; endogenous wild type CALR
T2 sequence (looked up): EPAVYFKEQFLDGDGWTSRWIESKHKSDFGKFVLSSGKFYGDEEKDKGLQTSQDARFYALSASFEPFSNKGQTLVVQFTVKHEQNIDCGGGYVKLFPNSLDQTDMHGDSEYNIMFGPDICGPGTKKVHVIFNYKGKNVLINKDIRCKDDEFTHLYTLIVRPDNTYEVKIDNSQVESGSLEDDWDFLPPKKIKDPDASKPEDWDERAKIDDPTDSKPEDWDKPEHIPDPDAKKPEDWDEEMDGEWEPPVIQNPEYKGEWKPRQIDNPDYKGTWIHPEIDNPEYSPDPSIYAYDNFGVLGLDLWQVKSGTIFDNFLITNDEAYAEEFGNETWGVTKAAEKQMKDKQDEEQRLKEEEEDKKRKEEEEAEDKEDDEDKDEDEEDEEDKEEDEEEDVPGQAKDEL

T3: thrombopoietin receptor (TpoR) (UniProt P40238 26-635, limits assumed)
T3 construct: whole, on cells; It was immunoprecipitated with anti-FLAG beads, so the expressed TpoR evidently carries a FLAG tag; The construct and the position of the tag are not described; also called TPO receptor
T3 sequence (looked up): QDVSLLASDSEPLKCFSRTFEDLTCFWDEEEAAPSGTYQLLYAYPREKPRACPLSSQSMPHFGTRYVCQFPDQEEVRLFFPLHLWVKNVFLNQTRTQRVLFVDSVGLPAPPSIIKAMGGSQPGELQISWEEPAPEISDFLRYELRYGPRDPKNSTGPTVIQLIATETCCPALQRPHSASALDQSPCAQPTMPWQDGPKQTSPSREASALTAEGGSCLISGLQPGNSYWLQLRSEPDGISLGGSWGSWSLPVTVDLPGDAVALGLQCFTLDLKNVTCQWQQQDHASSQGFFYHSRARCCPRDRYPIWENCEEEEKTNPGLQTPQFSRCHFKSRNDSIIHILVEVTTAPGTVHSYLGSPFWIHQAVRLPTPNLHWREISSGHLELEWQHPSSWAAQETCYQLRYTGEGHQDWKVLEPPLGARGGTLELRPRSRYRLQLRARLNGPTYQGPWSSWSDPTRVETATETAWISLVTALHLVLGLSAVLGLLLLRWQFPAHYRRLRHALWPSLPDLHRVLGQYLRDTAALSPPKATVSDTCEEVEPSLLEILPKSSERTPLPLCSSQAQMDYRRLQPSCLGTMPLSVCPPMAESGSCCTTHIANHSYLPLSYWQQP

B1: 4D7 rat monoclonal IgG2a anti-mutant calreticulin antibody (antibody, V domains shown)
VH: QVQLQQSGAELAKPGSSVKISCKASGYTFTNYDMSWIKQRPGQALEWIGAINPGNGVTDYNEKFRGKATLTVDKSSSTAFMQLSSLTPEDTAVYHCAREYRDNYGYFDYWGQGVMVTVSS
VL: DIVLTQTPVSLSVTLGDQASISCRSSQSLEYSDGYTYLDWFLQKPGQSPQLLIYEVSSRFSGVPDRFIGRGSGTDFTLKISRVEPEDLGVYYCFQATHDPFTFGSGTKLEIK
notes: also called clone 4D7; clone 4D7 mAb
B2: 9H11 rat monoclonal anti-mutant calreticulin antibody (antibody, V domains shown)
VH: QVQLQQSGAELTKPGSSVKISCKASGYTFTTYDISWIKQRPGQALEWIGAIYPGGETTGYNEKFKDKATLTVDKSSNTAFMQLSSLTPEDTAVYYCARWGHTTGTRFDHWGQGVMVTVSS
VL: B1 VL with T14S, D39E, F41Y, L42V, Y54W, S58D, R70S, F101P, S105G, I111L
notes: also called rat anti-human mutCALR 9H11

What was measured:
[1] = biological target: T1, full-length 30 amino acid CALR mutant …; experiment: Scatchard analysis, 125I-labelled and unlabelled 4D7 on plate-bound full-length peptide; right plot of three replicates, R2= 0.994
Method: (§1) A. Western blot screening of various mutant CALR antibody clones produced from hybridomas in TF-1 TpoR and TF-1 TpoR CALR^del61. Varying levels of intensity can be observed, compared to commercial Dianova monoclonal mutant CALR antibody. 4D7 is able to detect mutant CALR protein in CALR^del61 cells but not in CALR wild type TF-1 cells. B. Replicate Scatchard analyses of 4D7 using I¹²⁵-labelled and unlabelled 4D7 bound to full-length peptide (n=3). C. […] Cells were cultured in the presence or absence of 10 ng/ml TPO (n=3). D. Paracrine CALR-mutant protein is not sufficient to maintain TPO sensitive cells in culture. TF1 TpoR and TF-1 TpoR CALR^del61 cells were seeded at the same density and cultured in the presence or absence of TPO. […] Cell populations on either side of the membrane were counted every 24 hours over 4 days in triplicate and representative images were taken on day 4. […] E. Histogram overlays showing fluorescence intensity of unstained and PE conjugated IgG2a isotype control in TF-1, TF-1 TpoR and TF-1 TpoR CALR^del61 compared to 4D7 conjugated to PE.
(§2) 4D7 was radio-iodinated with ¹²⁵I (Perkin-Elmer) using Pierce Pre-Coated Iodination tubes (Thermo Scientific) with an estimated specific activity of 7733cpm/ng. […] 200 μL aliquots from each well were counted on a PerkinElmer 2470 Wizard2 Automatic Gamma Counter. Dissociation constants were calculated using the EBDA and LIGAND programs.

[2] = biological target: T2, wild type calreticulin (CALR); experiment: Western blot of TF-1 cell extracts (hybridoma clone screen)
Method: B. Replicate Scatchard analyses of 4D7 using I¹²⁵-labelled and unlabelled 4D7 bound to full-length peptide (n=3). C. […] Cells were cultured in the presence or absence of 10 ng/ml TPO (n=3). D. Paracrine CALR-mutant protein is not sufficient to maintain TPO sensitive cells in culture. TF1 TpoR and TF-1 TpoR CALR^del61 cells were seeded at the same density and cultured in the presence or absence of TPO. Cells were separated by semi-permeable membrane in a horizontal co-culture system. Cell populations on either side of the membrane were counted every 24 hours over 4 days in triplicate and representative images were taken on day 4. Exogenous CALR secreted by TF-1 TpoR CALR^del61 was unable to assist growth of factor dependent TF-1 TopR cells (n=3). E. Histogram overlays showing fluorescence intensity of unstained and PE conjugated IgG2a isotype control in TF-1, TF-1 TpoR and TF-1 TpoR CALR^del61 compared to 4D7 conjugated to PE.
For immunoblotting of total lysates, cells were lysed in NP40 buffer containing 150 mM NaCl, 50 mM Tris pH 7.6, 1% NP-40, supplemented with protease inhibitors (Complete, Roche) and phosphatase inhibitor cocktails, and boiled for 5 minutes after addition of sample buffer (60 mM Tris pH 6.8, 5% glycerol, 1% SDS, 2% β-mercaptoethanol, 0.02% bromophenol blue) before SDS gel electrophoresis followed by Western blotting (Tvorogov et al, 2010). […]

[3] = biological target: T3, thrombopoietin receptor (TpoR); experiment: flow cytometry on TF-1 TpoR cells (TpoR with endogenous wild type CALR)
[4] = biological target: T1, full-length 30 amino acid CALR mutant …; experiment: Scatchard analysis, 125I-labelled and unlabelled 4D7 on plate-bound full-length peptide; middle plot of three replicates, R2= 0.9926
Method: as §1, §2

[5] = biological target: T1, full-length 30 amino acid CALR mutant …; experiment: Scatchard analysis, 125I-labelled and unlabelled 4D7 on plate-bound full-length peptide; left plot of three replicates, R2= 0.9794
Method: as §1, §2

[6] = biological target: T1, full-length 30 amino acid CALR mutant …; experiment: 125I-Scatchard analysis, saturation binding of 125I-4D7 to plate-coated peptide
Method: 4D7 was radio-iodinated with ¹²⁵I (Perkin-Elmer) using Pierce Pre-Coated Iodination tubes (Thermo Scientific) with an estimated specific activity of 7733cpm/ng. For saturation binding assays, plates were coated overnight at 4° C. with full-length neoepitope CALR peptide (2 μg/mL) or control scrambled peptide (2 μg/mL). Wells were washed 3 times with phosphate buffered saline+0.05% Tween20, blocked with 5% bovine serum albumin for 1 hour followed by further washing. ¹²⁵I-4D7 was added at concentrations ranging from 2 pM to 2.5 nM in triplicate and incubated at room temperature for 2 hours. After washing, 1M HCl was added for 30 minutes to elute bound antibody. 200 μL aliquots from each well were counted on a PerkinElmer 2470 Wizard2 Automatic Gamma Counter. Dissociation constants were calculated using the EBDA and LIGAND programs.

[7] = test system: 30 amino acid peptide corresponding to the C-terminal mutant CALR neoepitope sequence; experiment: ELISA binding to peptide; parameters: species or system human
Method: (§3) Rats were immunised with a CALR mutant peptide “MMRTKMRMRRMRRT RRKMRRKMSPARPRTS” coupled to KLH, this peptide sequence is unique to CALR mutant. Serum from the immunised rats was screened by enzyme linked immunoassay, to verify a strong titre to the peptide immunogen, prior to performing the hybridoma fusion. Immunised rat spleen cells were harvested and a spleen single cell suspension was combined with Sp2/O myeloma cell line. The cell mixture was treated with polyethylene glycol plus DMEM prior to been plated in 96 well flat bottom plates. The expanding hybridomas were screened initially by ELISA and the positive clones were further verified by western blot, for reactivity to the expressed CALR mutant protein before subcloning the hybridomas for antibody production.

[8] = biological target: T1, full-length 30 amino acid CALR mutant …; experiment: ELISA on peptide
[9] = biological target: T2, wild type calreticulin (CALR); experiment: Western blot of cell extracts
[10] = test system: TF-1 TpoR CALR^del61 cells; experiment: Cell proliferation, trypan blue exclusion; assay type: cell-based, human; details: 5 or 20 μg/mL; FIG. 8
Method: […] Cells were seeded in triplicate and each well was counted in triplicate every 24 hours for 5 days using trypan blue exclusion.

[11] = test system: mutant CALR protein; experiment: Western blot detection of mutant CALR by hybridoma clones; assay type: binding, human; details: cell extracts from TF-1 cells transduced with and without mutant CALR; data not shown
Method: as §3
For immunoblotting of total lysates, cells were lysed in NP40 buffer containing 150 mM NaCl, 50 mM Tris pH 7.6, 1% NP-40, supplemented with protease inhibitors (Complete, Roche) and phosphatase inhibitor cocktails, and boiled for 5 minutes after addition of sample buffer (60 mM Tris pH 6.8, 5% glycerol, 1% SDS, 2% β-mercaptoethanol, 0.02% bromophenol blue) before SDS gel electrophoresis followed by Western blotting (Tvorogov et al, 2010). Primary antibodies against pERK (#9101), pSTAT5 (#9359), ERK (#4695), Actin (#4970), Caspase 3 (#14220), wildtype CALR (#12238) were purchased from Cell Signalling. Primary antibodies against pSTATI (#612233), pSTAT3 (#612357), STATI (#610186), STAT3 (#610190), STAT5 (#610192) and Anti-phosphotyrosine 4G10 (#610012) were purchased from BD Biosciences. Mutant CALR monoclonal antibody CAL2 was purchased from Dianova (Hamburg, Germany). Immunopreciptation of TpoR was performed in standard NP40 lysis buffer with additional 50 mM iodoacetamide to avoid any de novo disulfide bond formation post lysis. To reduce IgG background during immunoprecipitation anti-FLAG conjugated to magnetic beads (Sigma, #M8823) were used. For this same reason, anti-FLAG-HRP conjugated antibodies (Sigma, #A8592) were used in western blotting.

Molecule | Kd [1] [nM] | binding result [2] | binding result [3] | Kd [4] [nM] | Kd [5] [nM] | Kd [6] [nM] | binding to peptide by ELISA [7] | binding result [8] | binding result [9] | proliferation of cytokine-independent TF1 TpoR/mutCALR cells [10] | detecting mutant but not wild type CALR protein by Western blotting [11]
B1 | 1.25 | no binding | no binding (tested: 4 µg/mL (FIG. 1D legend)) | 1.43 | 1.91 | 1.53 |  |  |  |  | 
B2 |  |  |  |  |  |  | positive binding | binds | no binding | inhibit proliferation | superior activity
